Assay results reported in patent US20030008329A1 (Takeda / Millennium, published 2003).
Where no end group is shown, it is not given here.

T1: mouse-derived galanin receptor protein (mouse pancreatic β-cell line MIN6-derived, encoded by pMGR20) (mouse, UniProt P56479 1-348)
T1 construct: also called mouse galanin receptor; MIN6-derived galanin receptor protein
T1 sequence: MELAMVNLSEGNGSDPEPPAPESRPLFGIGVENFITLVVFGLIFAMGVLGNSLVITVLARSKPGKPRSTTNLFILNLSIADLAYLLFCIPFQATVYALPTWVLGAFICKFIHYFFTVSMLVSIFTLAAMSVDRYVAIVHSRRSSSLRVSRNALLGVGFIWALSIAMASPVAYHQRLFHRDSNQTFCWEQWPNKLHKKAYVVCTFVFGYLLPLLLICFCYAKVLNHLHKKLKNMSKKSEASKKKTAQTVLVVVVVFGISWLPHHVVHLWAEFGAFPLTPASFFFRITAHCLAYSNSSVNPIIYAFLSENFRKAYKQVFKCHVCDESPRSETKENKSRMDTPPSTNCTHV

B1: human galanin (unlabeled) (peptide, UniProt P22466 33-62, looked up)
peptide: GWTLNSAGYLLGPHAVGNHRSFSDKNGLTS
notes: mature; The assay used the galanin peptide
B2: porcine [125I] galanin (peptide, UniProt P07480 33-61, looked up)
peptide: GWTLNSAGYLLGPHAIDNHRSFHDKYGLA
modifications: ends and bridges not checked; also: [125I] radioisotope label (residue not given here)
notes: mature; also called labeled galanin
B3: galanin (1-16) partial peptide (peptide)
peptide: GWTLNSAGYLLGPHAI
notes: The range 1-16 counts on the mature peptide, not on the precursor
B4: porcine galanin (unlabeled) (peptide, UniProt P07480 33-61, looked up)
peptide: GWTLNSAGYLLGPHAIDNHRSFHDKYGLA
modifications: ends and bridges not checked
notes: mature; The assay used the 29-residue peptide; also called standard porcine galanin; galanin (porcine)

Columns and labels:
[1] = target: mouse-derived galanin receptor protein (mouse pancreatic β-cell line MIN6-derived, encoded by pMGR20) (mouse) (UniProt P56479); experiment: competition with porcine [125I] galanin on membranes of CHO cells expressing the mouse galanin receptor
[2] = target: mouse-derived galanin receptor protein (mouse pancreatic β-cell line MIN6-derived, encoded by pMGR20) (mouse) (UniProt P56479); experiment: competition with 100 pM porcine [125I] galanin on membranes of CHO cells expressing the mouse galanin receptor, 25 C 75 min
[3] = target: mouse-derived galanin receptor protein (mouse pancreatic β-cell line MIN6-derived, encoded by pMGR20) (mouse) (UniProt P56479); experiment: competition with [125I] porcine galanin on MIN6 cell membrane fractions, 25 C 75 min, filtration
[4] = target: T1, mouse-derived galanin receptor protein …; experiment: competition with porcine [125I] galanin on membranes of CHO cells expressing the mouse galanin receptor
Experimental: (§1) Membrane fractions (1 μg of protein) were incubated with the ligands for 75 min at 25° C. […] Each symbol represents the mean value±S.E.M. of the triplicate assays.

[5] = target: T1, mouse-derived galanin receptor protein …; experiment: competition with 100 pM porcine [125I] galanin on membranes of CHO cells expressing the mouse galanin receptor, 25 C 75 min
Experimental: as §1

[6] = target: T1, mouse-derived galanin receptor protein …; experiment: saturation binding and Scatchard plot analysis on membrane fractions of CHO cells transformed with mouse galanin receptor cDNA, 25 C 75 min, filtration
Source text: (§2) The results shown are from one representative experiment performed in triplicate assays.
as §2

[7] = target: T1, mouse-derived galanin receptor protein …; experiment: competition with [125I] porcine galanin on MIN6 cell membrane fractions, 25 C 75 min, filtration
Experimental: The MIN6 cell membrane fractions prepared by the method of the above-mentioned (1) were diluted with a buffer for the receptor binding experiment (containing 20 mM of Tris, 1 mM of EDTA, 0.03% of NaN , 0.1% of BSA, 0.05% of CHAPS, 0.5 mM of PMSF, 10 μg/ml of pepstatin, 20 μg/ml of leupeptin and 4 μg/ml of E-64; pH: 7.4) to make the membrane protein concentration 50 μg/ml.
The mixture was allowed to stand in a water bath of 25° C. for 75 minutes to promote the receptor binding reaction. Thereafter, 1.5 ml of an ice-cooled buffer for the binding experiment was added to the reaction solution for quenching the binding reaction and filtered with a glass fiber filter (GF/F, manufactured by Whatman) immediately whereupon the membrane fractions were collected on the filter paper. Then the filter paper was washed with 1.5 ml of the same buffer and the amount of the radioisotope in the filter paper was determined by a gamma-ray detector.

Molecule | Ki [4] | IC50 [5] | IC50 [7] | also measured
M15 (galanin receptor antagonist) (peptide) | – | – | – | Ki [1]: 0.23 nM; IC50 [2]: 0.83 nM
galanin antagonist (galantide) (peptide) | – | – | – | IC50 [3]: 0.69 nM
B1 | 0.12 nM | 0.43 nM | – | –
B2 | – | – | – | Kd [6]: 0.045 nM
B3 | 1 nM | 3.6 nM | 3.3 nM | –
B4 | 0.072 nM | – | 0.12 nM | –
